Data set [1] deals with the molecule itself. As to the kind of experiment: atomic force microscopy; 150 nM protein in 500 mM KCl deposited on freshly cleaved mica, incubated 48 hrs, in situ imaging in tapping mode.
Data set [2] deals with the molecule itself. The data set can be described thus: rotary shadowing electron microscopy; rmOtolin-1 adsorbed on mica, rapid freezing, freeze-drying, rotary shadowing.

B1: recombinant histidine tagged human Otolin-1 (natural protein, UniProt A6NHN0 24-477, looked up)
chain: KTTPHTKFTKKSEEREMPKGLKPSSGPPPEEEETLFTEMAEMAEPITKPSALDSVFGTATLSPFENFTLDPADFFLNCCDCCSPVPGQKGEPGETGQPGPKGEAGNLGIPGPPGVVGPQGPRGYKGEKGLKGERGDQGVPGYPGKPGAQGEPGPKGDKGNIGLGGVKGQKGSKGDTCGNCTKGEKGDQGAMGSPGLHGGPGAKGEKGEMGEKGEMGDKGCCGDSGERGGKGQKGEGGMKGEKGSKGDSGMEGKSGRNGLPGAKGDPGIKGEKGELGPPGLLGPTGPKGDIGNKGVRGPTGKKGSRGFKGSKGELARVPRSAFSAGLSKPFPPPNIPIKFEKILYNDQGNYSPVTGKFNCSIPGTYVFSYHITVRGRPARISLVAQNKKQFKSRETLYGQEIDQASLLVILKLSAGDQVWLEVSKDWNGVYVSAEDDSIFTGFLLYPEETSGISP
notes: Otolin-1, human; OmicsLink Expression-Ready Clone (pReceiver-M77 plasmid, GeneCopoeia) coding for human Otolin-1 with a C-terminal His tag; secreted protein; also called rhOtolin-1; human Otolin-1-His; source: HEK293-F (Freestyle Max 293), transfected; secreted into medium, purified (HisTrap); not shown: His tag, C-terminal, kept
Turning to B1, the binding result in data set [1] is listed as “binds”.

B2: recombinant mouse Otolin-1-Flag (natural protein, UniProt Q4ZJM7 24-482, looked up)
chain: KTTPYTKFTKKSEGKEMLKGLKPSSGFFLDGEETVHTETAAMAEPTTGSPALAMAESTAGPSASATTRLLPFESFSLDTTGFVLNCCHCCSFVTGQKGEPGKMGKQGPKGETGDTGSPGHPGTTGPQGPKGQKGEKGLKGDRGDQGAGGIPGYPGKPGEQGALGPKGDKGTIGPAGTKGQKGSKGELCGNGTKGEKGDPGASGAHGFIGEPGAKGEKGGVGEKGYRGDLGERGEKGQKGEKGMEGEKGSRGDVGSEGKRGSDGLPGLRGDSGPKGEKGEIGSPGFTGPAGPKGELGSKGVRGPTGKKGSRGVKGSKGEATQVPQSAFSALLSKPFPPPNVPIKFDKILSNDQGDYSPVTGKFNCSVPGTYIFSYHVTVRGRPARISLVARNRKQFKSRETLYGQQVDQASLLLILKLSAGDQVWLEVSKDWNGLYVGPEDDSIFSGFLLYPEETFSKSP
notes: Otolin-1, mouse; cDNA amplified by RT-PCR from E16.5 mouse otocysts with primers from the start ATG to the last codon before the stop (FLAG added before the stop codon); secreted protein; The introduction calls rmOtolin-1 histidine tagged, the methods and results Flag tagged; also called rmOtolin-1; Flag tagged recombinant mouse Otolin-1; source: HEK293-T, stably transfected; not shown: FLAG, …
Consider B2, for which the binding result in data set [2] is given as “binds”.

The values are drawn from paper PMC3991680, “In Vitro Calcite Crystal Morphology Is Modulated by Otoconial Proteins Otolin-1 and Otoconin-90” (PLoS ONE, 2014).
